# Reference: patent publication US20240092867A1 (UNIVERSITY OF CHICAGO, published 2024)
# What was measured:
# laminin-521 [1] = molecular target: T1, laminin-521 (human, UniProt O15230 36-3695; P55268 33-1798; P11047 34-1609); assay: SPR, laminin-521 immobilised, GF flowed, Langmuir fit
# T1 construct: Full-length recombinant human laminin isoform (BioLamina); chains read from the isoform name
# Description: (§1) A450 nm represents absorbance at 450 nm. BSA-coated wells served as negative controls (n=4, mean±SEM). Signals greater than 0.1 (grey box) are considered to be significant. […] Experimental curves were fitted with Langmuir binding kinetics.
# (§2) The obtained binding curves were fitted with Langmuir binding kinetics to calculate specific dissociation constants (KD) (FIG. 1B).
# (§3) SPR analysis was performed as described previously². In brief, measurements were made with a Biacore 3000 SPR system (GE Healthcare). […] VEGF-A165, PDGF-BB, or PlGF-2 was flowed at increasing concentrations in the running buffer at 20 μL/min. The sensor chip was regenerated with 50 mM NaOH for every cycle. Specific bindings of GFs to laminin were calculated by comparison to a non-functionalized channel used as a reference. Experimental results were fitted with Langmuir binding kinetics using BIAevaluation software (GE Healthcare).
# human plasma-derived vWF [2] = molecular target: T2, human plasma-derived vWF (human, UniProt P04275 764-2813); assay: SPR; plasma-derived vWF immobilised (~2000 RU), PDGF-BB flowed at 25-200 nM; heterogeneous ligand-parallel reactions fit, site 2 [panel D]
# T2 construct: mature; also called plasma-derived purified vWF; von Willebrand factor
# Description: (§4) A450 nm represents absorbance at 450 nm. Signals from VEGF-A121 served as a baseline, and bovine serum albumin (BSA) served as a negative control (n=4, mean±SD). […] Experimental curves were fitted with (C) 1:1 Langmuir fit model and (D) heterogeneous ligand-parallel reactions binding.
# (§5) SPR assays were performed as described previously2. In brief, measurements were made with a Biacore X100 SPR system or Biacore 3000 SPR system (GE Healthcare). […] Recombinant human VEGF-A165, VEGF-A121, or PDGF-BB was flowed at increasing concentrations in the running buffer at 30 μL/min. The sensor chip was regenerated with glycine at pH 2 for every cycle.
# laminin-521 [3] = molecular target: T1, laminin-521; assay: SPR; laminin-521 immobilised on the chip (~2000 RU), PDGF-BB flowed at 25-200 nM; Langmuir fit
# Description: as §1, §2, §3
# human plasma-derived vWF [4] = molecular target: T2, human plasma-derived vWF; assay: SPR; plasma-derived vWF immobilised (~2000 RU), PDGF-BB flowed at 25-200 nM; heterogeneous ligand-parallel reactions fit, site 1 [panel D]
# Description: as §4, §5
# [5] = molecular target: T3, recombinant laminin α3 2928-3150 protein (linker domain and LG4 domain) (human, UniProt Q16787 2928-3150); assay: SPR, α3 2928-3150 immobilised, GF flowed, Langmuir fit
# T3 construct: range 2928-3150; Made in HEK-293F cells; also called laminin alpha 3 LG domain recombinant protein
# T3 sequence: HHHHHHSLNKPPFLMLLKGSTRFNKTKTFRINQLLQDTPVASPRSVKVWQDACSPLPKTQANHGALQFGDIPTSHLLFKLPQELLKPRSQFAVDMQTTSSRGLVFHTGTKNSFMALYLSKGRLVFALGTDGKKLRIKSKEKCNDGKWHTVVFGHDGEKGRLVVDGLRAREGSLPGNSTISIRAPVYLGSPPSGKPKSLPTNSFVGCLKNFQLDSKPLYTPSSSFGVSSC
# Description: (§6) Affinity of GFs against recombinant laminin LG domains. ELISA plates were coated with 1 μg/mL (A) α3₂₉₂₈₋₃₁₅₀, (B) α4₈₂₆₋₁₈₁₆, or (C) α5₃₀₂₆₋₃₄₈₂ and further incubated with 1 μg/mL of VEGF-A165, VEGF-A121, PlGF-2, PlGF-1, PDGF-BB, or FGF-2 solution. Bound GFs were detected using a specific antibody for each GF (n=4, mean±SEM). Statistical analyses were done using the Mann-Whitney U test by comparing the signals obtained from the laminin domain- and the BSA-coated wells. *p<0.05, **p<0.01. […] A SPR chip was functionalized with the laminin α3₂₉₂₈₋₃₁₅₀ recombinant protein (˜1000 RU), and each GF was flowed over the chip at indicated concentrations. Curves represent the specific responses (in RU) to laminin. Experimental curves were fitted with Langmuir binding kinetics.
# (§7) Because the GFs that bound to laminins have also been previously reported to bind to other ECM glycoproteins through HBDs, it was hypothesized that HBDs of laminins might be responsible for the interactions between GFs and laminin. To address this hypothesis, ELISA assays were repeated for VEGF-A165, PlGF-2 or FGF-2 in the presence of heparin added in excess (10 μM). […] To further confirm this, the inventors tested direct GF binding to the LG domains from human laminin α3, α4 and α5, within which HBDs of laminin were localized.
# SPR analysis was performed as described previously². […]
# human plasma-derived vWF [6] = molecular target: T2, human plasma-derived vWF; assay: SPR, vWF immobilised, GF flowed, heterogeneous ligand-parallel reactions fit
# Description: as §4, §5
# laminin-111 [7] = molecular target: T4, laminin-111 (human, UniProt P25391 18-3075; P07942 22-1786; P11047 34-1609); assay: ELISA, GF coated, laminin 10 nM
# T4 construct: Full-length recombinant human laminin isoform (BioLamina); Chain composition is read from the isoform name
# laminin-421 [8] = molecular target: T5, laminin-421 (human, UniProt Q16363 25-1823; P55268 33-1798; P11047 34-1609); assay: ELISA, GF coated, laminin 10 nM
# T5 construct: Full-length recombinant human laminin isoform (BioLamina); chains read from the isoform name
# T5 sequence (Q16363 25-1823 limits assumed, chain 1 of 3): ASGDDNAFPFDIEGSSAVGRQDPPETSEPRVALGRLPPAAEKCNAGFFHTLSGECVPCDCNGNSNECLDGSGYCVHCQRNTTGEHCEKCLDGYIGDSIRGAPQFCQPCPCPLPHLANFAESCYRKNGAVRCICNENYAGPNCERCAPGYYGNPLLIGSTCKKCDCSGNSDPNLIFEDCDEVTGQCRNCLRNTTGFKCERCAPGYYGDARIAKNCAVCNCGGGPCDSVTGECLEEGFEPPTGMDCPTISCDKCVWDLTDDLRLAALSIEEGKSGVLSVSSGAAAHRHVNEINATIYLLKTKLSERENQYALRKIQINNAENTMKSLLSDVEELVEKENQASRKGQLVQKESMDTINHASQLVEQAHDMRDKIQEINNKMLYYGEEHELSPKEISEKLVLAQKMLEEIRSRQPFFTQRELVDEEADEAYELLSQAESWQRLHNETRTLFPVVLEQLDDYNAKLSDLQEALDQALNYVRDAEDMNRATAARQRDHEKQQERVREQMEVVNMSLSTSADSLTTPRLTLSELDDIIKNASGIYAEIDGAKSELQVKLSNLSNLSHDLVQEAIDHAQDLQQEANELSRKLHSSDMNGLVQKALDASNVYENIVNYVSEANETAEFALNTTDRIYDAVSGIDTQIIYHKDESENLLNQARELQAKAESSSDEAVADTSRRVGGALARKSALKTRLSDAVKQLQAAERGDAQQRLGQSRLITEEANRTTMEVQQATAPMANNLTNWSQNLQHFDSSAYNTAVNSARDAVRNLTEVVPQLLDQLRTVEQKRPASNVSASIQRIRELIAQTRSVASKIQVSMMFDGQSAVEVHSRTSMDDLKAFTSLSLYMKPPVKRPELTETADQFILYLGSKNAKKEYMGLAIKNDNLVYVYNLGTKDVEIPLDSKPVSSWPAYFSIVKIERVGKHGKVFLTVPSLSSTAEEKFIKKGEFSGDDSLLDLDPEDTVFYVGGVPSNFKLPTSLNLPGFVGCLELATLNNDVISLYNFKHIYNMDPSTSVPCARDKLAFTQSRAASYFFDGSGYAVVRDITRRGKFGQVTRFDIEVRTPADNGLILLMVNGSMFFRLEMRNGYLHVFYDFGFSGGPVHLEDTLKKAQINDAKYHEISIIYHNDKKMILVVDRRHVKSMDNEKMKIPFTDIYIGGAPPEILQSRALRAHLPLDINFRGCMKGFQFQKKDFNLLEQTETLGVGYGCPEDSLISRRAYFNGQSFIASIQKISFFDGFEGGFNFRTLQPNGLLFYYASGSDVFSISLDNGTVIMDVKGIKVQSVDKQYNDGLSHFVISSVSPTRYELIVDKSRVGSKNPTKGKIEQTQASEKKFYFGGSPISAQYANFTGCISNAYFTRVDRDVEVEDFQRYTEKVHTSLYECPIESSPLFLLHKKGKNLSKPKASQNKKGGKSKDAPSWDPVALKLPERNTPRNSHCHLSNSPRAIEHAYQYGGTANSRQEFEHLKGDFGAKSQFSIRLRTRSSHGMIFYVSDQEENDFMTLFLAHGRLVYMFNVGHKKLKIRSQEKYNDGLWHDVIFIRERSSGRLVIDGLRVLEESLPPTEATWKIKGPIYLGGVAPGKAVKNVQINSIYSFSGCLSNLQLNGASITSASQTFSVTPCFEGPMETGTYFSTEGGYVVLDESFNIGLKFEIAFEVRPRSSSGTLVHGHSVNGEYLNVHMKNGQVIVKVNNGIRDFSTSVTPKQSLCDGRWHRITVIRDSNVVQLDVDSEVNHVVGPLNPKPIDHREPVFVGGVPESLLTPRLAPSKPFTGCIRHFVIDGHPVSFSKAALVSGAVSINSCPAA
# T5 sequence (P55268 33-1798 limits assumed, chain 2 of 3): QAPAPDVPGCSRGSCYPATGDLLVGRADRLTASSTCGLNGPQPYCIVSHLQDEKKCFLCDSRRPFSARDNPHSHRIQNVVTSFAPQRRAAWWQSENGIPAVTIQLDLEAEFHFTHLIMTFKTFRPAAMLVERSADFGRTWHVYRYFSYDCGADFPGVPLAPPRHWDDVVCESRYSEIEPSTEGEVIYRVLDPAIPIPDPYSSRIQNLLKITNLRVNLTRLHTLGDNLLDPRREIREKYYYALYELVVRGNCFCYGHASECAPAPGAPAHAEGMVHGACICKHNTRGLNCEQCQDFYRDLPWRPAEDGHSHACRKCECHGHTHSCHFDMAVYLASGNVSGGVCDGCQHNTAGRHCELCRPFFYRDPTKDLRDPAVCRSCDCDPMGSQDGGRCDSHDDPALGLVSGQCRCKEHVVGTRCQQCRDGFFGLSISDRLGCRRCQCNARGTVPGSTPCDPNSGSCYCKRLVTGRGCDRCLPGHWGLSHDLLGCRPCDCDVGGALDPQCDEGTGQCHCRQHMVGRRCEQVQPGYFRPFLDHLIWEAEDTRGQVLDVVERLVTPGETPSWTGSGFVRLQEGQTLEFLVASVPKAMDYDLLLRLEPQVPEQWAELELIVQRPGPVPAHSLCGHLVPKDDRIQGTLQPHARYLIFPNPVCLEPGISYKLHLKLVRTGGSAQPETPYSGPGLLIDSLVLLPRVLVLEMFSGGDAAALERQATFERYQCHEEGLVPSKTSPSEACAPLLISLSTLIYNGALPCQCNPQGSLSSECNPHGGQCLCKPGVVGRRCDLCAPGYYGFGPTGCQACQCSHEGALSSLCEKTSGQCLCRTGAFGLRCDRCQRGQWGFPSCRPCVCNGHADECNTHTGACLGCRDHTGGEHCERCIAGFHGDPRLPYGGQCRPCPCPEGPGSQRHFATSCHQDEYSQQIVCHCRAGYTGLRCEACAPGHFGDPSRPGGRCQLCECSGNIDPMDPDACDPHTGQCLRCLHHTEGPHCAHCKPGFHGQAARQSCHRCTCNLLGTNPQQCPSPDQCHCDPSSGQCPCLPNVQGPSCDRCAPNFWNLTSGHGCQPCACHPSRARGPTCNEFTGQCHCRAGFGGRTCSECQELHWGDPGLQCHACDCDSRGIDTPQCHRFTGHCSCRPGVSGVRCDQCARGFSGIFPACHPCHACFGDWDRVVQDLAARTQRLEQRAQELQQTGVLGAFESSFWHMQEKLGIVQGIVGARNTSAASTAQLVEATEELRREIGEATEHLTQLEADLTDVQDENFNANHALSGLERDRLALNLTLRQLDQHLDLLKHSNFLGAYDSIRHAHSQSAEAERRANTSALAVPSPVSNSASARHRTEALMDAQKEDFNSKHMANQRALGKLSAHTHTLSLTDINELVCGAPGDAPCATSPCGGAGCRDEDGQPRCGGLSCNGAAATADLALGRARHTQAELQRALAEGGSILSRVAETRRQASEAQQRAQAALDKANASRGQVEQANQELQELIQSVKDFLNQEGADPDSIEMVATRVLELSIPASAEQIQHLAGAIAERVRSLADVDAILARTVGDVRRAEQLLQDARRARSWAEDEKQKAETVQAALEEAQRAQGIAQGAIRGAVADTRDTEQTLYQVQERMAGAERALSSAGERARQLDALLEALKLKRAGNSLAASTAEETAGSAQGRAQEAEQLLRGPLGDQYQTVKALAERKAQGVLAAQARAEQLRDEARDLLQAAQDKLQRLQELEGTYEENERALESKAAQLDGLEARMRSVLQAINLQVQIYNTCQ
# T5 sequence (P11047 34-1609 limits assumed, chain 3 of 3): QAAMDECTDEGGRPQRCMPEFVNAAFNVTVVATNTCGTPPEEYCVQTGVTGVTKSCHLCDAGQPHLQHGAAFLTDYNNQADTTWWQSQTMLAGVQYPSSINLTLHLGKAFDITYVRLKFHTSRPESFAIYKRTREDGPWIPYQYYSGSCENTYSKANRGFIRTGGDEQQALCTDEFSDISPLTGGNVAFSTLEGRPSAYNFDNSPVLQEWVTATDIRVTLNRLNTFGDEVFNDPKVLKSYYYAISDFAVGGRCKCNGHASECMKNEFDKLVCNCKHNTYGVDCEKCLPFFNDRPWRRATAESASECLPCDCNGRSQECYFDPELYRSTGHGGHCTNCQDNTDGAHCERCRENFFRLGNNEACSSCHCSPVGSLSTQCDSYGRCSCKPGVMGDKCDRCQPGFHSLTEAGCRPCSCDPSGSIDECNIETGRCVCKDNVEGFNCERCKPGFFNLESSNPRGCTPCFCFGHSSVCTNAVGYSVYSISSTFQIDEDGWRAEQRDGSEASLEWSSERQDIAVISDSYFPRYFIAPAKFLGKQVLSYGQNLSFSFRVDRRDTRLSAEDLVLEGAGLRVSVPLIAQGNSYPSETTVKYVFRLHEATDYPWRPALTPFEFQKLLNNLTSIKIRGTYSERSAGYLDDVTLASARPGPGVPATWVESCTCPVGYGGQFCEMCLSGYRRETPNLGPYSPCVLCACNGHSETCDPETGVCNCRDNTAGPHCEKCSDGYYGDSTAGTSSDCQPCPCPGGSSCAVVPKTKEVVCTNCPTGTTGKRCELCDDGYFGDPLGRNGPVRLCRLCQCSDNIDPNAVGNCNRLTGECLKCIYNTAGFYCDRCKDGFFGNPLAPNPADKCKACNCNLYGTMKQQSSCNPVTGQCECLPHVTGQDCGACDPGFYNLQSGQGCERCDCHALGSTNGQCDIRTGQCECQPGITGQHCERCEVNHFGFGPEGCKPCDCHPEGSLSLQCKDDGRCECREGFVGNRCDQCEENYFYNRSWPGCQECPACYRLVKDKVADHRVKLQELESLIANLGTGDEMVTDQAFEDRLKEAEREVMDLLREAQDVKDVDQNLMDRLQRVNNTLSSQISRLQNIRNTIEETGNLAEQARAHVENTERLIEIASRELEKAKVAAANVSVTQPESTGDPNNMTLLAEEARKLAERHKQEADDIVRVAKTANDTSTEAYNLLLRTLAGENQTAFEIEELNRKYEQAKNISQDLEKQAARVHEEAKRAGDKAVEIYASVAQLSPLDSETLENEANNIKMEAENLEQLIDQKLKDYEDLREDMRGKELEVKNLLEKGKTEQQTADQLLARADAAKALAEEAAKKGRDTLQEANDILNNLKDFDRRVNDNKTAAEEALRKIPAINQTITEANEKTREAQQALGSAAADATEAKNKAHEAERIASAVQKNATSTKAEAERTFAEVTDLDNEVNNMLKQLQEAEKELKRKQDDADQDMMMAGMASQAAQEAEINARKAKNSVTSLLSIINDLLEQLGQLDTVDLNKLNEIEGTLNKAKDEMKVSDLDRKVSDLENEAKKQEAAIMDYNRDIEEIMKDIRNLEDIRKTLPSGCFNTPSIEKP
# laminin-411 [9] = molecular target: T6, laminin-411 (human, UniProt Q16363 25-1823; P07942 22-1786; P11047 34-1609); assay: ELISA, GF coated, laminin 10 nM
# T6 construct: Full-length recombinant human laminin isoform (BioLamina); chains read from the isoform name
# laminin-211 [10] = molecular target: T7, laminin-211 (human, UniProt P24043 23-3122; P07942 22-1786; P11047 34-1609); assay: ELISA, GF coated, laminin 10 nM
# T7 construct: Full-length recombinant human laminin isoform (BioLamina); chains read from the isoform name
# [11] = molecular target: T3, recombinant laminin α3 2928-3150 …; assay: SPR; α3 2928-3150 recombinant protein immobilised (~1000 RU), PDGF-BB flowed at 0.325-41.6 nM; Langmuir fit [panel D]
# Text: Statistical analyses were done using the Mann-Whitney U test by comparing the signals obtained from the laminin domain- and the BSA-coated wells. *p<0.05, **p<0.01. […] A SPR chip was functionalized with the laminin α3₂₉₂₈₋₃₁₅₀ recombinant protein (˜1000 RU), and each GF was flowed over the chip at indicated concentrations. Curves represent the specific responses (in RU) to laminin. Experimental curves were fitted with Langmuir binding kinetics.
# as §7
# SPR analysis was performed as described previously². In brief, measurements were made with a Biacore 3000 SPR system (GE Healthcare). […] VEGF-A165, PDGF-BB, or PlGF-2 was flowed at increasing concentrations in the running buffer at 20 μL/min. The sensor chip was regenerated with 50 mM NaOH for every cycle.
# human plasma-derived vWF [12] = molecular target: T2, human plasma-derived vWF; assay: ELISA, GF coated 50 nM, vWF 1 µg/mL
# [13] = molecular target: T3, recombinant laminin α3 2928-3150 …; assay: ELISA, LG domain protein coated, GF 1 µg/mL
# Description: as §6
# ELISA tests were performed as described above. […] 1 μg/mL of BSA served as non-binding protein control. After blocking with 2% BSA PBS-0.05% Tween 20 (PBS-T) solution, 1 μg/mL of the recombinant human proteins (VEGF-A121, VEGF-A165, PlGF-1, PlGF-2, PDGF-BB or FGF-2) or 10 μg/mL of biotinylated heparin (Sigma-Aldrich) were added. Bound GF was detected with biotinylated antibodies for human VEGF, PlGF, PDGF-BB, or FGF-2 (R&D Systems). The antibodies were detected by streptavidin-HRP (R&D Systems).
# laminin-521 [14] = molecular target: T1, laminin-521; assay: SPR; laminin-521 immobilised on the chip (~2000 RU), PlGF-2 flowed at 20-75 nM; Langmuir fit
# Description: as §1, §2, §3
# laminin-111 [15] = molecular target: T4, laminin-111; assay: ELISA; plate coated with 10 µg/mL laminin, 1 µg/mL PlGF-2 in solution without or with 10 µM heparin, bound GF detected with antibody [panel B]
# Description: (§8) FIGS. 2A-C. […] ELISA plates were coated with 10 μg/mL laminin and further incubated with a 1 μg/mL (A) VEGF-A165, (B) PlGF-2, or (C) FGF-2 solution in the absence or presence of excess (10 μM) heparin. Bound GFs were detected using a specific antibody for each GF (n=4, mean±SEM). Statistical analyses were done using the Mann-Whitney U test by comparing the signals with and without heparin. *p<0.05, **p<0.01.
# as §7
# laminin-421 [16] = molecular target: T5, laminin-421; assay: as above
# Description: as §8, §7
# laminin-411 [17] = molecular target: T6, laminin-411; assay: as above
# Description: as §8, §7
# laminin-211 [18] = molecular target: T7, laminin-211; assay: as above
# Description: as §8, §7
# [19] = molecular target: T8, recombinant human vWF A1 domain (human, UniProt P04275 1261-1468, limits assumed); assay: ELISA, A1 domain coated, GF 1 µg/mL
# T8 construct: domain: A1; also called vWF A1 recombinant protein; recombinant A1 domain
# Description: ELISA tests were performed as described above. […] After blocking with 2% BSA solution containing PBS-T, 1 μg/mL of the recombinant human proteins VEGF-A121, VEGF-A165, PlGF-1, PlGF-2, PDGF-BB, FGF-2, CXCL-12α and CXCL-12γ were added. 1 μg/mL of BSA served as non-binding protein control. Bound GF or chemokine was detected with biotinylated antibodies for human VEGF-A, PlGF, PDGF-BB, FGF-2, or CXCL-12 (R & D Systems). The antibodies were detected by streptavidin-HRP (R & D Systems). Color development and the absorbance measurement were done as described above.
binder,measurement,setting,value
"platelet-derived growth factor (PDGF)-BB (ligand, human, UniProt P01127 82-190, looked up, mature; Purchased in mature form) SLGSLTIAEPAMIAECKTRTEVFEISRRLIDRTNANFLVWPPCVEVQRCSGCCNNRNVQCRPTQVQLRPVQVRKIEIVRKKPIFKKATVTLEDHLACKCETVAAARPVT",Kd,laminin-521 [1],24.2 nM
same,Kd,human plasma-derived vWF [2],23.8 nM
same,koff,human plasma-derived vWF [2],0.00508 s⁻¹
same,kon,human plasma-derived vWF [2],213000 M⁻¹ s⁻¹
same,koff,laminin-521 [3],0.00497 s⁻¹
same,kon,laminin-521 [3],206000 M⁻¹ s⁻¹
same,Kd,human plasma-derived vWF [4],154 nM
same,koff,human plasma-derived vWF [4],0.0664 s⁻¹
same,kon,human plasma-derived vWF [4],430000 M⁻¹ s⁻¹
same,Kd,[5],10.2 nM
same,Kd,human plasma-derived vWF [6],24 nM
same,binding result,laminin-111 [7],binds
same,binding result,laminin-421 [8],binds
same,binding result,laminin-411 [9],binds
same,binding result,laminin-211 [10],binds
same,Kd,[11],12.1 nM
same,koff,[11],0.0136 s⁻¹
same,kon,[11],1.12e+06 M⁻¹ s⁻¹
"placental growth factor (PlGF)-2 (ligand, human, UniProt P49763-3 19-170, looked up, mature; Purchased in mature form) LPAVPPQQWALSAGNGSSEVEVVPFQEVWGRSYCRALERLVDVVSEYPSEVEHMFSPSCVSLLRCTGCCGDENLHCVPVETANVTMQLLKIRSGDRPSYVELTFSQHVRCECRPLREKMKPERRRPKGRGKRRREKQRPTDCHLCGDAVPRR",binding result,human plasma-derived vWF [12],binds
same,Kd,laminin-521 [1],12.9 nM
same,binding result,[13],binds
same,koff,laminin-521 [14],0.0246 s⁻¹
same,kon,laminin-521 [14],1.91e+06 M⁻¹ s⁻¹
same,binding result,laminin-111 [15],binds
same,binding result,laminin-421 [16],binds
same,binding result,laminin-411 [17],binds
same,binding result,laminin-211 [18],binds
same,binding result,[19],binds
